Test results as given in patent US10301203B2, “Chloroperoxidase-catalyzed degradation of pharmaceutical pollutants in wastewater” (THE FLORIDA INTERNATIONAL UNIVERSITY BOARD OF TRUSTEES, priority 2017, dated 2019).

Assays:
Assay type in all cases: biochemical
Details in all cases: CPO Rz=1.03
[1] = Classic peroxidase activity of CPO, ABTS substrate
Procedure: (§1) The halogenation activity of CPO used in this study was 4232 U·mL^−1 based on the standard MCD assay (Hager et al., 1966). The aromatic hydroxylation activity (3563 U·mL-1) of the enzyme was determined by monitoring the hydroxylation of naphthalene into I-naphthol (Kluge et al., 2007). The classic peroxidase activity of the enzyme determined using ABTS as the substrate was 3071 U·mL^−1 (Manoj et al., 2008).

[2] = Aromatic hydroxylation activity of CPO, naphthalene hydroxylation
Procedure: as §1

[3] = Standard MCD assay, halogenation activity of CPO
Procedure: as §1

B1: CPO: heme-containing glycoprotein secreted by the fungus Caldariomyces fumago (protein, UniProt P04963 21-319, looked up)
Chloroperoxidase: QEPGSGIGYPYDNNTLPYVAPGPTDSRAPCPALNALANHGYIPHDGRAISRETLQNAFLNHMGIANSVIELALTNAFVVCEYVTGSDCGDSLVNLTLLAEPHAFEHDHSFSRKDYKQGVANSNDFIDNRNFDAETFQTSLDVVAGKTHFDYADMNEIRLQRESLSNELDFPGWFTESKPIQNVESGFIFALVSDFNLPDNDENPLVRIDWWKYWFTNESFPYHLGWHPPSPAREIEFVTSASSAVLAASVTSTPSSLPSGAIGPGAEAVPLSFASTMTPFLLATNAPYYAQDPTLGPND
classic peroxidase activity [1]: 3071 U·mL^−1 | aromatic hydroxylation activity [2]: 3563 U·mL-1 | halogenation activity [3]: 4232 U·mL^−1
